Laboratory results taken from patent US20250195685A1 (CAPSTAN THERAPEUTICS, published 2025).
Values belong to the binder of their own block, whether it stands above or below them.

Columns and labels:
[1] = molecular target: T1, insulin (Sigma); assay: polyreactive ELISA, insulin coated, 100 nM antibody
T1 construct: Antigen of the polyreactivity ELISA
Experimental: Insulin ([…]; Sigma) and dsDNA ([…]; Sigma) were coated onto 96-well high-binding ELISA microplates (Corning) at 50 μL per well overnight at 4° C. Plates were blocked with PBS with 0.5% BSA (blocking buffer) at room temperature (RT) for 1 h, followed by three washes with PBST (PBS with 0.1% Tween-20). 50 μL of 100 nM antibody in blocking buffer was added to each well and incubated at RT for 1 h, followed by six washes with 100 μL of PBS. 50 μL of diluted anti-human IgG-horseradish peroxidase (HRP) conjugate (Jackson ImmunoResearch) was added to the wells and incubated for 1 h followed by another six washes. Finally, 50 μL of 3, 3′, 5, 5′-Tetramethylbenzidine (TMB) substrate (Fisher Scientific) was added to each well to develop the detection signal. The reactions were stopped by adding 50 μL of 2 M sulfuric acid to each well. The absorbance was measured at 450 nm using a multimode microplate reader. Ustekinumab as the control antibody with low polyreactivity and bococizumab as a highly polyreactive antibody control were also included in the polyreactive ELISA assessment.
The first assessment tested for low non-specific binding to dsDNA and insulin by ELISA. […] Thus, by this standard, none of the tested antibodies were polyreactive.

[2] = molecular target: T2, human CD8 on cells (CD8-overexpressing HEK293T cells, SupT1, HPB-ALL, human T cells, transfected HEK293 of … (human, UniProt P01732 22-235)); assay: flow cytometry on CD8-overexpressing HEK293T cells, non-linear fit of normalized gMFI
T2 construct: whole, on cells; also called cell surface CD8
T2 sequence (P01732 22-235): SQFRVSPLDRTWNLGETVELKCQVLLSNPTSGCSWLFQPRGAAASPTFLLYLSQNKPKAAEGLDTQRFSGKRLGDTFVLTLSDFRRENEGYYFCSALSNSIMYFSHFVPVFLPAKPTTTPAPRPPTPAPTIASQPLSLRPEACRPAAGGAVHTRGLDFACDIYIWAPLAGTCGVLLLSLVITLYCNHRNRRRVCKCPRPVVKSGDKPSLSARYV
Experimental: To obtain the results shown in FIG. 3A, that determined EC₅₀ values for antigen-specific binding, CD8-overexpressing HEK293T cells were dissociated in Versine solution (PBS buffer at pH 7.4 supplemented with 0.5 mM EDTA), and 2×10⁵ total cells were transferred to a V-bottom 96 well culture plate (Corning). Cells were washed twice with Cell Staining buffer (#420201, Biolegend). Each anti-CD8α antibody with human IgG1 isotype and Fc-silencing mutations L234A, L235A and P329A was diluted in four-fold antibody titration series from 100 μg/mL to 6.1 ng/ml into Cell Staining buffer. eFluor 780 Fixable Viability dye (eBioscience) was also included during antibody solutions at a 1:4000 dilution. Cells were stained with each diluted antibody solution for 30 minutes on ice. Cells were then washed three times with Cell Staining buffer and primary antibody binding was detected by staining with anti-human Fc BV421 conjugate antibody (#410704, Biolegend) at 1:100 dilution for 30 minutes on ice. After staining with the secondary detection antibody, cells were washed three times with Cell Staining buffer, fixed in FluoroFix buffer (Biolegend) and kept at 4° C. in the dark until analysis. Flow cytometry analysis on each sample was performed on an Agilent NovoCyte flow cytometer. Flow cytometry data was analyzed by Flowjo 10 (Becton, Dickinson & Company) to measure the geometric median fluorescence intensity (gMFI) of the on-cell binding from each antibody. The gMFI values were normalized with the gMFI measured in the sample stained with only the secondary detection antibody and plotted against the concentration of the added antibodies. The binding curves were constructed using the Graphpad Prism software, and EC₅₀ values were determined by non-linear curve fitting.

[3] = molecular target: T3, human CD8αα homodimer, recombinant protein (Acro Biosystems) (human, UniProt P01732 22-182); assay: BLI steady state, whole hIgG1-LALAPA antibody on CD8α-His (Ni-NTA sensor), 30 °C
T3 construct: also called CD8αα antigen; biotinylated CD8α recombinant protein (CDA-H82E3)
T3 sequence (P01732 22-182 limits assumed): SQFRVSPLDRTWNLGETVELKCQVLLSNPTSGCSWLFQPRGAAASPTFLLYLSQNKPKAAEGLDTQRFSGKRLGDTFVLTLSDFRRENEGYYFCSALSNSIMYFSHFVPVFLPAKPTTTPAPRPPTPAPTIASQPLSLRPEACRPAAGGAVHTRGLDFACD
Experimental: (§1) To assess affinity of whole antibodies, steady state analysis was used as the bivalent nature of both whole antibody and CD8α complicates kinetic analysis. 50 nM CD8α-His (that is, CD8α with a C-terminal oligohistidine tag; Acro) was immobilized on Ni-NTA sensor probes. Binding was analyzed with a three-fold antibody dilutions series: 60 nM, 20 nM, 6.67 nM, 2.22 nM, 0.74 nM, and 0.25 nM. The antigen-loaded sensors were incubated in the diluted solutions to capture the whole IgG antibody for 300 s to record the association phase. Sensors were incubated in the kinetic buffer for 900 s to record the dissociation phase. The spin speed was 1000 rpm for all steps except the antigen loading step which was 400 rpm to control density of the antigen. The temperature of the performed assays was at 30° C. during the association and dissociation phases. The sensor data were baseline subtracted and further analyzed in GatorOne software (version 2.10) to determine the equilibrium dissociation constants (KD) of the antibodies by fitting the signals of the steady states to the 1:1 binding model.

[4] = molecular target: T3, human CD8αα homodimer, recombinant …; assay: BLI, whole antibody
[5] = molecular target: T3, human CD8αα homodimer, recombinant …; assay: BLI, whole antibody, steady state dissociation constant (column head x10^-9M)
Experimental: as §1

T1 sequence (P01308 25-54, chain 1 of 2): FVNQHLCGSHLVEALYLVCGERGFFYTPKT
T1 sequence (P01308 90-110, chain 2 of 2): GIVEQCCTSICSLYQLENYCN

koff [4]: 0.00192 s⁻¹ | kon [4]: 1.86e+06 M⁻¹ s⁻¹ | Kd [5]: 0.76 nM
B6: CBD1380 whole antibody (VH N55S of CBD1033), Fc-silenced human IgG1 (antibody, V domains shown)
VH: QVQLVQSGAEVKKPGASVKVSCKASRYTFTDYNLHWVRQAPGQGLEWMGFIYPYSGGTGYAQKFQGRVTMTVDTSTSTAYMELSSLRSEDTAVYYCARDHRYNEGVSFDYWGQGTTVTVSS
VL: DIQLTQSPSSLSASVGDRATITCRASESVDGFGNSFMNWYQQKPGKAPKLLIYLASNLESGVPSRFSGSGSGTDFTLTISSVQPEDFATYYCQQNNEDPYTFGQGTKLEIKR

koff [4]: 0.000795 s⁻¹ | kon [4]: 1.91e+06 M⁻¹ s⁻¹ | Kd [5]: 0.5 nM
B7: CBD1381 whole antibody (VH N55Q of CBD1033), Fc-silenced human IgG1 (antibody, V domains shown)
VH: QVQLVQSGAEVKKPGASVKVSCKASRYTFTDYNLHWVRQAPGQGLEWMGFIYPYQGGTGYAQKFQGRVTMTVDTSTSTAYMELSSLRSEDTAVYYCARDHRYNEGVSFDYWGQGTTVTVSS
VL: DIQLTQSPSSLSASVGDRATITCRASESVDGFGNSFMNWYQQKPGKAPKLLIYLASNLESGVPSRFSGSGSGTDFTLTISSVQPEDFATYYCQQNNEDPYTFGQGTKLEIKR

The remaining lines, values behind:

B1: CBD1032 whole antibody, Fc-silenced human IgG1 (LALAPA) (antibody, V domains shown)
VH: QVQLVQSGAEVKKPGASVKVSCKASRYTFTDYNLHWVRQAPGQGLEWMGFIYPYNGGTGYAQKFQGRVTMTRDTSTSTVYMELSSLRSEDTAVYYCARDHRYNEGVSFDYWGQGTTVTVSS
VL: DIQMTQSPSSLSASVGDRVTITCRASESVDGFGNSFMNWYQQKPGKAPKLLIYLASNLESGVPSRFSGSGSGTDFTLTISSLQPEDFATYYCQQNNEDPYTFGQGTKLEIKR
polyreactivity ELISA score [1]: 1 | EC50 [2]: 2.35 nM | Kd [3]: 1.4 nM

B2: CBD1034 whole antibody, Fc-silenced human IgG1 (LALAPA) (antibody, V domains shown)
VH: QVQLVQSGAEVKKPGASVKVSCKASRYTFTDYNLHWVRQAPGQGLEWMGFIYPYNGGTGYAQKFQGRVTMTVDTSTSTAYMELSSLRSEDTAVYYCARDHRYNEGVSFDYWGQGTTVTVSS
VL: DIQLTQSPSSLSASVGDRATITCRASESVDGFGNSFMNWYQQKPGKAPKLLIYLASNLESGVPSRFSGSGSRTDFTLTISSVQPEDFATYYCQQNNEDPYTFGQGTKLEIKR
polyreactivity ELISA score [1]: 1 | EC50 [2]: 2.71 nM | Kd [3]: 4.63 nM

B3: CBD1035 whole antibody, Fc-silenced human IgG1 (LALAPA) (antibody, V domains shown)
VH: QVQLVQSGAEVKKPGASVKISCKASRYTFTDYNLHWVRQAPGQGLEWIGFIYPYNGGTGYAQKFQGRATLTVDTSTSTAYMELSSLRSEDTAVYYCARDHRYNEGVSFDYWGQGTTLTVSS
VL: DIQLTQSPSSLSASVGDRATITCRASESVDGFGNSFMNWYQQKPGKAPKLLIYLASNLESGVPSRFSGSGSGTDFTLTISSVQPEDFATYYCQQNNEDPYTFGQGTKLEIKR
polyreactivity ELISA score [1]: 1 | EC50 [2]: 1.75 nM | Kd [3]: 2.66 nM

B4: CBD1039 whole antibody, Fc-silenced human IgG1 (LALAPA) (antibody, V domains shown)
VH: QVQLVQSGAEVKKPGASVKISCKASRYTFTDYNLHWVRQAPGQGLEWIGFIYPYNGGTGYAQKFQGRATLTVDYSTSTAYMELSSLRSEDTAVYYCARDHRYNEGVSFDYWGQGTTLTVSS
VL: DIQLTQSPSSLSASVGDRATITCRASESVDGFGNSFMNWYQQKPGKAPKLLIYLASNLESGVPSRFSGSGSGTDFTLTISSVQPEDFATYYCQQNNEDPYTFGQGTKLEIKR
polyreactivity ELISA score [1]: 1 | EC50 [2]: 4.39 nM | Kd [3]: 1.76 nM

B5: CBD1040 whole antibody, Fc-silenced human IgG1 (LALAPA) (antibody, V domains shown)
VH: QVQLVQSGAEVKKPGASVKISCKASRYTFTDYNLHWVRQAPGQGLEWIGFIYPYNGGTGYAQKFQGRATLTVDYSTSTAYMELSSLRSEDTAVYYCARDHRYNEGVSFDYWGQGTTLTVSS
VL: DIQLTQSPSSLSASVGDRATITCRASESVDGFGNSFMNWYQQKPGKAPKLLIYLASNLESGVPSRFSGSGSRTDFTLTISSVQPEDFATYYCQQNNEDPYTFGQGTKLEIKR
polyreactivity ELISA score [1]: 1 | EC50 [2]: 2.54 nM | Kd [3]: 4.06 nM
